System: MS2 coat protein
Experiment: apparent KD of MS2 coat protein; higher = weaker reporter binding
Conditions: Eterna round: R101
Procedure: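 RNA-MaP: designed FMN/MS2 RNA switches (84 nt design region) are transcribed on-chip within common flanks and titrated with SNAP-549-labelled MS2 coat protein (about 1-3000 nM) in 100 mM Tris pH 7.5, 80 mM KCl, 4 mM MgCl2, without or with 200 uM FMN. Median apparent KD per design; activation ratio = KD,OFF / KD,ON.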

Sequence | apparent KD of MS2 coat protein (input ligand: FMN 200 uM) [nM] | apparent KD of MS2 coat protein (input ligand: none) [nM]
AAUAAACAAUAAAAGAGUCCACGAAACUUCUGAGGAUCACCCAGAAGGGCUGAGGUAAUACCUCAGCAGGAUAUGGACGUGGAC [#SharedSequence IExNG# - 1] (puzzle (switch architecture): Inverted Exclusion NG 3) | 5.09 | 5
AGAAACUACGAGAAGGACAUGUGGUCCUUCAAAAAAAUGAGGAUCACCCAUGUAGGAUAUCGUAGUUUCAGGAUCGUGAGAUCA [salish99_ISLExNG1_x101 #HINGE] (puzzle (switch architecture): Inverted Small Loop Exclusion NG 1) | 9.58 | 30
CGCUAUGAUGGUUGUAAUAGAGCAUAGGAUAUGCUUGUACAUGAGGAUCACCCAUGUUAUAUUUUGCAGAAGGGUGCAUUUGCG [JR #DistanceFar #Hairpin #NP SLSSNG3 Sub073] (puzzle (switch architecture): Small Loop Same State NG 3) | 30.1 | 59.9
CUAUUAUAUGUAGGAUAUGCAUAUUAUUAUUGUGCAGAAGGACAUGAGGAUCACCCAUGUAUAUUAUUAUUAUAUAUUAUAUAU (puzzle (switch architecture): Exclusion NG 1) | 11.8 | 16.5
GGAGACCUUACAGGAUAUGCUGGACUUUGUCCAGCAGAAGGGUGAAUACAUGAGGAUCACCCAUGUAUGGUCUCCAAAUUUAAU [jl-ssng1-3.05 #GC_VS_GU_SWITCHING] (puzzle (switch architecture): Same State NG 1) | 121 | 52.2
GGAGAUACAUGAGGAUCACCCAUGUAGGAUAUCGGGCCCAUACCCGGCGAAAGCCGGGUAUGGGCCGAGAAGGGCGUACACACC [#LOL-5] (puzzle (switch architecture): Small Loop Exclusion NG 3) | 7.47 | 8.26
GGAGGAGGAUAAGGAUAUAACAUGAGGAUCACCCAUGUGGAGGAGGAGGAGGAGGAGGAGGAGGGUUAGAAGGUAUGGAGGAGG [First attempt] (puzzle (switch architecture): Exclusion NG 2) | 11 | 16.2
GGGUACAUCGGAGGAUAUCAUGUAAAUACAUGAGGAUCACCCAUGUCGAUGGAGACAUAGGAGAUUGAGAAGGCCGAUGUACCG (puzzle (switch architecture): Same State NG 2) | 144 | 74
UGCUAACUGUAGAAGGGUGACAUGAGGAUCACCCAUGUGCACGCGCGCUUUACGGCGCGCGUGCCACAGGAUAUACAGUUGAGU [Erora] (puzzle (switch architecture): Inverted Same State NG 2) | 55.1 | 43.1
UGGUACAUGGGAGGAUAUGGGUUGAUAACAUGAGGAUCACCCAUGUUAAAUAAGCCGAGAGGCUACUAGAAGGCCCAUGUACCU [#InverseDoubleMagnetSystem - JL SNG1 3.00 18] (puzzle (switch architecture): Same State NG 2) | 10.6 | 293
UUGGUUGUCGUAGGAUAUGUAGGAUAUUCCUACAUGAGGAUCACCCAUGUUCGCAUGGAAGAAGGACAGAAGGACGAUGACCAU [salish99_SSNG2_001 #endbits investigation] (puzzle (switch architecture): Same State NG 2) | 9.52 | 1280
